{"source": "paper PMC4231716", "target": "HIV-1JR-FLΔCT Env trimer (HIV-1 JR-FL) (UniProt Q75760)", "test": "flow cytometry on cells", "data": [{"substance": "C34-Ig, fusion protein of an immunoglobulin Fc and the gp41 HR2 peptide (Fc fusion)", "values": [{"measurement": "percent of Env-expressing cells binding C34-Ig", "result": 37, "unit": "%"}]}]}
